Laboratory results from PMC11842806, “Molecular basis of foreign DNA recognition by BREX anti-phage immunity system” (Nature Communications, 2025).

How the values were obtained:
BrxX:Ocr (BrxX2:Ocr2) = biological target: T1, BrxX:Ocr (BrxX2:Ocr2) (Escherichia coli, UniProt P0DUF9); assay: cryoEM structure ([…] A); assay type: binding; conditions: Ocr bound, no DNA, Mg2+, CHAPSO, pH 7.5; site: methyltransferase domain pocket; SAM modelled from the DNA-bound structure
T1 construct: gene pglX; full-length BrxX with N-terminal His6 kept plus T7 Ocr with N-His-TEV kept; both expressed in E. coli BW25113; BrxX2:Ocr2 complex; with Protein Ocr (Escherichia phage T7)
T1 sequence (P0DUF9 1-1205): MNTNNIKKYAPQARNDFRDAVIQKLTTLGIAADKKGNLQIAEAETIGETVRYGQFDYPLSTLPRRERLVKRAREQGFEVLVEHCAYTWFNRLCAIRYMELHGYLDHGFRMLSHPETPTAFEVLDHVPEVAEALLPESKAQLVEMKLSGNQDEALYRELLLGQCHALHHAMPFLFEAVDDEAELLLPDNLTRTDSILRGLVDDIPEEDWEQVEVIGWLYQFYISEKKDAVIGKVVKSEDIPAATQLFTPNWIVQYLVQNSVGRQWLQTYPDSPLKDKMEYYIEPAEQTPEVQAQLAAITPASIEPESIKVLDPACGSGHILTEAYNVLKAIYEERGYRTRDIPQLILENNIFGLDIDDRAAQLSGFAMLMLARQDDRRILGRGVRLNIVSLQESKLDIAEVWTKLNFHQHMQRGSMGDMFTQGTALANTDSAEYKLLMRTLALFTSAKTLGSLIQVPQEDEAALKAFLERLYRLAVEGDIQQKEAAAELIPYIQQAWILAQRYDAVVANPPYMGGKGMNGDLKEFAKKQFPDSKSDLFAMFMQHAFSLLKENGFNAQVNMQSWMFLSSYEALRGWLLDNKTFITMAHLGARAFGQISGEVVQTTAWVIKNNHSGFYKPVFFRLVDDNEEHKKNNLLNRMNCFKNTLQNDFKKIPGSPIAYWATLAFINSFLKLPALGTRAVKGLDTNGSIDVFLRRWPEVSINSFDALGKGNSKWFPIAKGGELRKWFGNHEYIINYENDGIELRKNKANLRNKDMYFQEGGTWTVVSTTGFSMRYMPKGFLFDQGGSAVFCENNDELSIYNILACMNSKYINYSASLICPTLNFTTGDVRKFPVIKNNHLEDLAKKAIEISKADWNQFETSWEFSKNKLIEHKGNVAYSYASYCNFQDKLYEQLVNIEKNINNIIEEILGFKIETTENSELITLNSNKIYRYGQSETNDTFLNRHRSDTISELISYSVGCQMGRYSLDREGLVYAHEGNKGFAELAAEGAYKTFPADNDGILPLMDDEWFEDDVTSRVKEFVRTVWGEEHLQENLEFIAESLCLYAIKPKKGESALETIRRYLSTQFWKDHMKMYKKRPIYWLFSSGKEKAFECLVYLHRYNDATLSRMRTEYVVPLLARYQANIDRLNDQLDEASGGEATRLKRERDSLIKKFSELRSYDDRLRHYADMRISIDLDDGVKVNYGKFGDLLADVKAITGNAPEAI
T1 sequence (P03775 1-117 partner): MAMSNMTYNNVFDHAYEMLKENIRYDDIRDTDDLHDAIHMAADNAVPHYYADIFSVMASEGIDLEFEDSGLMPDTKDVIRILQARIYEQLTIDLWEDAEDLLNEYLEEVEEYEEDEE

BrxX (PglX) [1] = biological target: T2, BrxX (PglX) (Escherichia coli HS, UniProt P0DUF9 1-1205); assay: BLI; SAM; heterogeneous binding, no accurate Kd; EMSA: 20 nM Cy5-DNA, 0.5x TBE pH 8.0, 35 mM NaCl, 5% glycerol, +/-0.5 mM SAM or SAH, 30 min, room temperature; BLI: 20 mM Tris-HCl pH 8.0, 100 mM NaCl, 0.05 mg/mL BSA, 0.02% Tween-20, +/-0.5 mM SAM, 30 C; conditions: protein: recombinant; tags: N-His6; label: 5'-biotin on strand 1; blunt
T2 sequence: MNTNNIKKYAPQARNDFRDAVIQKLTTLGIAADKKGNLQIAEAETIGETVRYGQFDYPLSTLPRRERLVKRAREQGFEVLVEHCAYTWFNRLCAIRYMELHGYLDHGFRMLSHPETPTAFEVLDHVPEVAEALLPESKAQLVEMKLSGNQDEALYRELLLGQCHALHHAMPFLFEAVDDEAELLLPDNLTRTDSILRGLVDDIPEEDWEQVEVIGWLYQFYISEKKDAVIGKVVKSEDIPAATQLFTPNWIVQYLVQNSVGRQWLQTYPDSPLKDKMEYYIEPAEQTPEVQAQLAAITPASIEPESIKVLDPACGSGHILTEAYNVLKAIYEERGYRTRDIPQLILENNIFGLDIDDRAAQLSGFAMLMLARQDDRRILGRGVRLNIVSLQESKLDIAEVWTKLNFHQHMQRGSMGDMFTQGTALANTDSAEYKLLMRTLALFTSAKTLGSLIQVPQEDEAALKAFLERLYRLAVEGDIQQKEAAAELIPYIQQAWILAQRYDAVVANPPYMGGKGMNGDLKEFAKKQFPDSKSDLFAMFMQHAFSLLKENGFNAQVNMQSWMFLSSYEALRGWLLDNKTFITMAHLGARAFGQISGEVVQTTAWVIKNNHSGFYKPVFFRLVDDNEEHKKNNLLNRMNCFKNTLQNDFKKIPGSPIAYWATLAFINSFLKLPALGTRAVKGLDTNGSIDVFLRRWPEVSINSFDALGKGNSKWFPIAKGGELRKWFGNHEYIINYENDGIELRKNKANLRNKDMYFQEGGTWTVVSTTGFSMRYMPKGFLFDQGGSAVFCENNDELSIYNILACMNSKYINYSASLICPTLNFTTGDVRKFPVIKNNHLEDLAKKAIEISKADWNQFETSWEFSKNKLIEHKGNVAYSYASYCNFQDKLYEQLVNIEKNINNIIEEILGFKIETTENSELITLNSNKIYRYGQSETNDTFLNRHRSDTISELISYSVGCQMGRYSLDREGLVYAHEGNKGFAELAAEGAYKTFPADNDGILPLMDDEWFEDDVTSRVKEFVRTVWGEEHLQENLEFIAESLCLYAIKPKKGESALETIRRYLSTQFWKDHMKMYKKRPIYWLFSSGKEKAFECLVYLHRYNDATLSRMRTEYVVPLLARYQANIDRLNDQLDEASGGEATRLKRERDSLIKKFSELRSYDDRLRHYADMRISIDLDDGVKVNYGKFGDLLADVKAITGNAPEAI

BrxX (PglX) [2] = biological target: T2, BrxX (PglX); assay: EMSA; non-methylated partner of N9; no cofactor, SAM or SAH; EMSA: 20 nM Cy5-DNA, 0.5x TBE pH 8.0, 35 mM NaCl, 5% glycerol, +/-0.5 mM SAM or SAH, 30 min, room temperature; BLI: 20 mM Tris-HCl pH 8.0, 100 mM NaCl, 0.05 mg/mL BSA, 0.02% Tween-20, +/-0.5 mM SAM, 30 C; conditions: protein: recombinant; tags: N-His6; label: 5'-Cy5 on strand 1; blunt
BrxX (PglX) [3] = biological target: T2, BrxX (PglX); assay: BLI; 1:1 fit, stimulated by SAM; Kd only in figure; EMSA: 20 nM Cy5-DNA, 0.5x TBE pH 8.0, 35 mM NaCl, 5% glycerol, +/-0.5 mM SAM or SAH, 30 min, room temperature; BLI: 20 mM Tris-HCl pH 8.0, 100 mM NaCl, 0.05 mg/mL BSA, 0.02% Tween-20, +/-0.5 mM SAM, 30 C; conditions: protein: recombinant; tags: N-His6; label: 5'-biotin on strand 1; blunt
BrxX (PglX) [4] = biological target: T2, BrxX (PglX); assay: EMSA; improved binding; with and without 0.5 mM SAM; EMSA: 20 nM Cy5-DNA, 0.5x TBE pH 8.0, 35 mM NaCl, 5% glycerol, +/-0.5 mM SAM or SAH, 30 min, room temperature; BLI: 20 mM Tris-HCl pH 8.0, 100 mM NaCl, 0.05 mg/mL BSA, 0.02% Tween-20, +/-0.5 mM SAM, 30 C; conditions: protein: recombinant; tags: N-His6; label: 5'-Cy5 on strand 1; blunt
BrxX (PglX) [5] = biological target: T2, BrxX (PglX); assay: EMSA; 0.5 mM SAM; EMSA: 20 nM Cy5-DNA, 0.5x TBE pH 8.0, 35 mM NaCl, 5% glycerol, +/-0.5 mM SAM or SAH, 30 min, room temperature; BLI: 20 mM Tris-HCl pH 8.0, 100 mM NaCl, 0.05 mg/mL BSA, 0.02% Tween-20, +/-0.5 mM SAM, 30 C; conditions: protein: recombinant; tags: N-His6; label: 5'-Cy5 on strand 1; blunt
BrxA = biological target: T3, BrxA (Escherichia coli HS, UniProt P0DUF6 1-213); assay: EMSA; EMSA: 20 nM Cy5-DNA, 0.5x TBE pH 8.0, 35 mM NaCl, 5% glycerol, +/-0.5 mM SAM or SAH, 30 min, room temperature; BLI: 20 mM Tris-HCl pH 8.0, 100 mM NaCl, 0.05 mg/mL BSA, 0.02% Tween-20, +/-0.5 mM SAM, 30 C; conditions: protein: recombinant; tags: N-His6; label: 5'-Cy5 on strand 1; blunt
T3 sequence: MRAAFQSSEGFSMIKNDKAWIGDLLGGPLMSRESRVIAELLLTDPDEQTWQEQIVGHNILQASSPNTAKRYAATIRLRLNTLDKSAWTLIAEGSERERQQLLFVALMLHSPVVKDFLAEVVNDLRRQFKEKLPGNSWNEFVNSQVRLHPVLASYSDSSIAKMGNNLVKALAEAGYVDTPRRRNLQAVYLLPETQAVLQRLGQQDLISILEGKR

BrxX (PglX) [6] = biological target: T2, BrxX (PglX); assay: EMSA; no cofactor; EMSA: 20 nM Cy5-DNA, 0.5x TBE pH 8.0, 35 mM NaCl, 5% glycerol, +/-0.5 mM SAM or SAH, 30 min, room temperature; BLI: 20 mM Tris-HCl pH 8.0, 100 mM NaCl, 0.05 mg/mL BSA, 0.02% Tween-20, +/-0.5 mM SAM, 30 C; conditions: protein: recombinant; tags: N-His6; label: 5'-Cy5 on strand 1; blunt
BrxX (PglX) [7] = biological target: T2, BrxX (PglX); assay: cryoEM structure (2.2 A); SAM, metal modelled as Mg2+; EMSA: 20 nM Cy5-DNA, 0.5x TBE pH 8.0, 35 mM NaCl, 5% glycerol, +/-0.5 mM SAM or SAH, 30 min, room temperature; BLI: 20 mM Tris-HCl pH 8.0, 100 mM NaCl, 0.05 mg/mL BSA, 0.02% Tween-20, +/-0.5 mM SAM, 30 C; conditions: protein: recombinant; tags: N-His6; blunt

C[S+](CC[C@H](N)C(=O)O)C[C@H]1O[C@@H](n2cnc3c(N)ncnc32)[C@H](O)[C@@H]1O (some centres unmarked) [S-adenosyl methionine]
cryoEM structure (2.8 A) (BrxX:Ocr (BrxX2:Ocr2)): The MTD displayed density for a molecule of SAM

B1: 40 bp BREX, biotin (dsDNA)
DNA 1: TCAGTAGTCAAGTCAGTGGTAAGGTCAGGACAGGAGTCAG
DNA 2: CTGACTCCTGTCCTGACCTTACCACTGACTTGACTACTGA
binding result (BrxX (PglX) [1]): binds

B2: 40 bp BREX (dsDNA)
DNA 1: TCAGTAGTCAAGTCAGTGGTAAGGTCAGGACAGGAGTCAG
DNA 2: CTGACTCCTGTCCTGACCTTACCACTGACTTGACTACTGA
binding result (BrxX (PglX) [2]): binds

B3: 20 bp BREX, biotin (dsDNA)
DNA 1: AGTCAGTGGTAAGGTCAGGA
DNA 2: TCCTGACCTTACCACTGACT
binding result (BrxX (PglX) [3]): binds

B4: 50 bp BREX (dsDNA)
DNA 1: AGTCATCAGTAGTCAAGTCAGTGGTAAGGTCAGGACAGGAGTCAGCAGGA
DNA 2: TCCTGCTGACTCCTGTCCTGACCTTACCACTGACTTGACTACTGATGACT
binding result (BrxX (PglX) [4]): binds

B5: 43 bp scrambled (dsDNA)
DNA 1: AGTCAGTAGTGAGGTCAGGAATGAGTCAGTCTCACTGTCAGGA
DNA 2: TCCTGACAGTGAGACTGACTCATTCCTGACCTCACTACTGACT
Kd (BrxX (PglX) [5]): ~300 nM
binding result (BrxA): binds

B6: 43 bp, 1 BREX site (dsDNA)
DNA 1: AGTCAGTGGTAAGGTCAGGAATGAGTCAGTTGGCAAGTCAGGA
DNA 2: TCCTGACTTGCCAACTGACTCATTCCTGACCTTACCACTGACT
Kd (BrxX (PglX) [5]): ~60 nM
binding result (BrxA): binds
Kd (BrxX (PglX) [6]): ~300 nM

B7: 43 bp, 2 BREX sites head-to-tail (H2T) (dsDNA)
DNA 1: AGTCAGTGGTAAGGTCAGGAATGAGTCAGTGGTAAGGTCAGGA
DNA 2: TCCTGACCTTACCACTGACTCATTCCTGACCTTACCACTGACT
binding result (BrxX (PglX) [7]): binds
